The text below walks through data of the RNAGym collection of RNA variant scans (doi:10.7554/elife.90254).

To fix the notation:
B1: OR4K15 (parent)
chain: GUUAACGGUCAUAGGCCAUGGAAACUAGGAGCACCAUUUCGCUGCCAGUGAAGAAAUGAACAAAGAAAAUCUGGGCCAGGCAGGCAUCAAAAGAAAUAGUCUUGCGCUCAACCAGAAAGUCUGUAAUCAUUUUAAGGGUA

This series covers variants of B1. In words: self-cleavage, relative activity (ratio to wild type); higher = more cleavage; in vitro, sequencing; the parent is a self-cleaving ribozyme.
Turning to GUUAACGGUCAUAGGCCAUGGAAACUAGGAGCACCAUUUCGCUGCCAGUGAAGAAAUGAACAAAGAAAAUCUGGGCCAGGCAGGCAUCAAAAGAAAUAGUCUUGCGCUCAACCAGAAAAUCUGUAAUCAUUUUAAGGGUA, the self-cleavage was 2.29. With GUUAACGGUCAUAGGCCAUGGAAACUAGGAGCACCAUUUCGCUGCCAGUGAAGAAAUGAACAAAGAAAAUCUGGGCCAGGCAGGCAUCAAAAGAAAUAGUCUUGCGCUCAACCAGAAACUCUGUAAUCAUUUUAAGGGUA the figure was 1.04. With GUUAACGGUCAUAGGCCAUGGAAACUAGGAGCACCAUUUCGCUGCCAGUGAAGAAAUGAACAAAGAAAAUCUGGGCCAGGCAGGCAUCAAAAGAAAUAGUCUUGCGCUCAACCAGAAAUUCUGUAAUCAUUUUAAGGGUA the figure was 1.82.

Turning to GUUAACGGUCAUAGGCCAUGGAAACUAGGAGCACCAUUUCGCUGCCAGUGAAGAAAUGAACAAAGAAAAUCUGGGCCAGGCAGGCAUCAAAAGAAAUAGUCUUGCGCUCAACCAGAAAAUCCGUAAUCAUUUUAAGGGUA, the self-cleavage came to 1.11. Under GUUAACGGUCAUAGGCCAUGGAAACUAGGAGCACCAUUUCGCUGCCAGUGAAGAAAUGAACAAAGAAAAUCUGGGCCAGGCAGGCAUCAAAAGAAAUAGUCUUGCGCUCAACCAGAAGGUCUGUAAUCAUUUUAAGGGGA stands 0.07. Regarding GUUAACGGUCAUAGGCCAUGGAAACUAGGAGCACCAUUUCGCUGCCAGUGAAGAAAUGAACAAAGAAAAUCUGGGCCAGGCAGGCAUCAAAAGAAAUAGUCUUGCGCUCAACCAGAAAGACUGUAAUCAUUUAAAGGGUA, the self-cleavage was 1.81. Under GUUAACGGUCAUAGGCCAUGGAAACUAGGAGCACCAUUUCGCUGCCAGUGAAGAAAUGAACAAAGAAAAUCUGGGCCAGGCAGGCAUCAAAAGAAAUAGUCUUGCGCUCAACCAGAAUGUCUGUGAUCAUUUUAAGGGUA stands 0.86; under GUUAACGGUCAUAGGCCAUGGAAACUAGGAGCACCAUUUCGCUGCCAGUGAAGAAAUGAACAAAGAAAAUCUGGGCCAGGCAGGCAUCAAAAGAAAUAGUCUUGCGCUCAACCAGAAAGACUGCAAUCAUUUUAAGGGUA, 1.04; under GUUAACGGUCAUAGGCCAUGGAAACUAGGAGCACCAUUUCGCUGCCAGUGAAGAAAUGAACAAAGAAAAUCUGGGCCAGGCAGGCAUCAAAAGAAAUAGUCUUGCGCUCAACCAGAAUGACUGUAAUCAUUUUAAGGGUA, 1.68. With GUUAACGGUCAUAGGCCAUGGAAACUAGGAGCACCAUUUCGCUGCCAGUGAAGAAAUGAACAAAGAAAAUCUGGGCCAGGCAGGCAUCAAAAGAAAUAGUCUUGCGCUCAACCAGAAGGUCAGUAAUCAUUUUAAGGGUA, the self-cleavage turned out to be 0.79.

In the case of GUUAACGGUCAUAGGCCAUGGAAACUAGGAGCACCAUUUCGCUGCCAGUGAAGAAAUGAACAAAGAAAAUCUGGGCCAGGCAGGCAUCAAAAGAAAUAGUCUUGCGCUCAACCAGAAUGUCAGUAAUCAUUUUAAGGGUA, the self-cleavage turned out to be 1.08. Consider GUUAACGGUCAUAGGCCAUGGAAACUAGGAGCACCAUUUCGCUGCCAGUGAAGAAAUGAACAAAGAAAAUCUGGGCCAGGCAGGCAUCAAAAGAAAUAGUCUUGCGCUCAACCAGAAAGACUGUAAUCAUUUUAAGGGUA, for which the self-cleavage came to 1.61. As for GUUAACGGUCAUAGGCCAUGGAAACUAGGAGCACCAUUUCGCUGCCAGUGAAGAAAUGAACAAAGAAAAUCUGGGCCAGGCAGGCAUCAAAAGAAAUAGUCUUGCGCUCAACCAGAAAGCCUGUAAUCAUUUUAAGGGUA, the self-cleavage was found to be 0.8. Under GUUAACGGUCAUAGGCCAUGGAAACUAGGAGCACCAUUUCGCUGCCAGUGAAGAAAUGAACAAAGAAAAUCUGGGCCAGGCAGGCAUCAAAAGAAAUAGUCUUGCGCUCAACCAGAAAGACUGUAAUCAUUUUAAGGGUU stands 1.67; under GUUAACGGUCAUAGGCCAUGGAAACUAGGAGCACCAUUUCGCUGCCAGUGAAGAAAUGAACAAAGAAAAUCUGGGCCAGGCAGGCAUCAAAAGAAAUAGUCUUGCGCUCAACCAGAAAGACUGUAAUCAUUUUAAGGGUG, 1.13. As to GUUAACGGUCAUAGGCCAUGGAAACUAGGAGCACCAUUUCGCUGCCAGUGAAGAAAUGAACAAAGAAAAUCUGGGCCAGGCAGGCAUCAAAAGAAAUAGUCUUGCGCUCAACCAGAAAGCCUGUAAUAAUUUUAAGGGUA, the self-cleavage worked out at 0.69. Take GUUAACGGUCAUAGGCCAUGGAAACUAGGAGCACCAUUUCGCUGCCAGUGAAGAAAUGAACAAAGAAAAUCUGGGCCAGGCAGGCAUCAAAAGAAAUAGUCUUGCGCUCAACCAGAAAGACUGUAGUCAUUUUAAGGGUA: the self-cleavage is 1.64. Turning to GUUAACGGUCAUAGGCCAUGGAAACUAGGAGCACCAUUUCGCUGCCAGUGAAGAAAUGAACAAAGAAAAUCUGGGCCAGGCAGGCAUCAAAAGAAAUAGUCUUGCGCUCAACCAGAAUGUCUGUAAUCAUUUUAAGGGAA, the self-cleavage was 0.6. As to GUUAACGGUCAUAGGCCAUGGAAACUAGGAGCACCAUUUCGCUGCCAGUGAAGAAAUGAACAAAGAAAAUCUGGGCCAGGCAGGCAUCAAAAGAAAUAGUCUUGCGCUCAACCAGAAAGCCUGUAAUCAAUUUAAGGGUA, the self-cleavage was found to be 0.71. With GUUAACGGUCAUAGGCCAUGGAAACUAGGAGCACCAUUUCGCUGCCAGUGAAGAAAUGAACAAAGAAAAUCUGGGCCAGGCAGGCAUCAAAAGAAAUAGUCUUGCGCUCAACCAGAAAGCCUGUAAUCAUCUUAAGGGUA the figure was 0.85; with GUUAACGGUCAUAGGCCAUGGAAACUAGGAGCACCAUUUCGCUGCCAGUGAAGAAAUGAACAAAGAAAAUCUGGGCCAGGCAGGCAUCAAAAGAAAUAGUCUUGCGCUCAACCAGAAAAUCUGUAGUCAUUUUAAGGGUA, 1.98.

For the variant GUUAACGGUCAUAGGCCAUGGAAACUAGGAGCACCAUUUCGCUGCCAGUGAAGAAAUGAACAAAGAAAAUCUGGGCCAGGCAGGCAUCAAAAGAAAUAGUCUUGCGCUCAACCAGAAAGACUGUAAUCAUUUUAGGGGUA, the self-cleavage came to 1.1.

Turning to GUUAACGGUCAUAGGCCAUGGAAACUAGGAGCACCAUUUCGCUGCCAGUGAAGAAAUGAACAAAGAAAAUCUGGGCCAGGCAGGCAUCAAAAGAAAUAGUCUUGCGCUCAACCAGAAAGCCUGUAAUCGUUUUAAGGGUA, the self-cleavage was 0.63. With GUUAACGGUCAUAGGCCAUGGAAACUAGGAGCACCAUUUCGCUGCCAGUGAAGAAAUGAACAAAGAAAAUCUGGGCCAGGCAGGCAUCAAAAGAAAUAGUCUUGCGCUCAACCAGAAAGCCUGUAAUCAUUUUAAGGUUA the figure was 2.11. With GUUAACGGUCAUAGGCCAUGGAAACUAGGAGCACCAUUUCGCUGCCAGUGAAGAAAUGAACAAAGAAAAUCUGGGCCAGGCAGGCAUCAAAAGAAAUAGUCUUGCGCUCAACCAGAAUGUCUGUAAUCAUGUUAAGGGUA the figure was 0.62; with GUUAACGGUCAUAGGCCAUGGAAACUAGGAGCACCAUUUCGCUGCCAGUGAAGAAAUGAACAAAGAAAAUCUGGGCCAGGCAGGCAUCAAAAGAAAUAGUCUUGCGCUCAACCAGAAAGCCUGUAAUCAUUUUAAAGGUA, 1.65. With GUUAACGGUCAUAGGCCAUGGAAACUAGGAGCACCAUUUCGCUGCCAGUGAAGAAAUGAACAAAGAAAAUCUGGGCCAGGCAGGCAUCAAAAGAAAUAGUCUUGCGCUCAACCAGAAAGACUGUAAUCAUUCUAAGGGUA the figure was 1.37; with GUUAACGGUCAUAGGCCAUGGAAACUAGGAGCACCAUUUCGCUGCCAGUGAAGAAAUGAACAAAGAAAAUCUGGGCCAGGCAGGCAUCAAAAGAAAUAGUCUUGCGCUCAACCAGAAAGACUGUAAUCAAUUUAAGGGUA, 0.54. With GUUAACGGUCAUAGGCCAUGGAAACUAGGAGCACCAUUUCGCUGCCAGUGAAGAAAUGAACAAAGAAAAUCUGGGCCAGGCAGGCAUCAAAAGAAAUAGUCUUGCGCUCAACCAGAAUGUCUGUAACCAUUUUAAGGGUA, the self-cleavage amounted to 0.02. With GUUAACGGUCAUAGGCCAUGGAAACUAGGAGCACCAUUUCGCUGCCAGUGAAGAAAUGAACAAAGAAAAUCUGGGCCAGGCAGGCAUCAAAAGAAAUAGUCUUGCGCUCAACCAGAAAGCCUGUUAUCAUUUUAAGGGUA the figure was 1.38.

On to GUUAACGGUCAUAGGCCAUGGAAACUAGGAGCACCAUUUCGCUGCCAGUGAAGAAAUGAACAAAGAAAAUCUGGGCCAGGCAGGCAUCAAAAGAAAUAGUCUUGCGCUCAACCAGAAAGCCUGUGAUCAUUUUAAGGGUA, for which the self-cleavage is 0.43. Under GUUAACGGUCAUAGGCCAUGGAAACUAGGAGCACCAUUUCGCUGCCAGUGAAGAAAUGAACAAAGAAAAUCUGGGCCAGGCAGGCAUCAAAAGAAAUAGUCUUGCGCUCAACCAGAAUGUCUGUAGUCAUUUUAAGGGUA stands 0.17. GUUAACGGUCAUAGGCCAUGGAAACUAGGAGCACCAUUUCGCUGCCAGUGAAGAAAUGAACAAAGAAAAUCUGGGCCAGGCAGGCAUCAAAAGAAAUAGUCUUGCGCUCAACCAGAAAGACUGUAACCAUUUUAAGGGUA: the self-cleavage came to 1.67. With GUUAACGGUCAUAGGCCAUGGAAACUAGGAGCACCAUUUCGCUGCCAGUGAAGAAAUGAACAAAGAAAAUCUGGGCCAGGCAGGCAUCAAAAGAAAUAGUCUUGCGCUCAACCAGAAAGCCUGUAACCAUUUUAAGGGUA the figure was 0.43; with GUUAACGGUCAUAGGCCAUGGAAACUAGGAGCACCAUUUCGCUGCCAGUGAAGAAAUGAACAAAGAAAAUCUGGGCCAGGCAGGCAUCAAAAGAAAUAGUCUUGCGCUCAACCAGAAAGCCUGUAAUCAUUUUACGGGUA, 1.51; with GUUAACGGUCAUAGGCCAUGGAAACUAGGAGCACCAUUUCGCUGCCAGUGAAGAAAUGAACAAAGAAAAUCUGGGCCAGGCAGGCAUCAAAAGAAAUAGUCUUGCGCUCAACCAGAAACUCUGUAAUCAUUCUAAGGGUA, 1.13. Under GUUAACGGUCAUAGGCCAUGGAAACUAGGAGCACCAUUUCGCUGCCAGUGAAGAAAUGAACAAAGAAAAUCUGGGCCAGGCAGGCAUCAAAAGAAAUAGUCUUGCGCUCAACCAGAAUGUCUGUAAUCACUUUAAGGGUA stands 0.4; under GUUAACGGUCAUAGGCCAUGGAAACUAGGAGCACCAUUUCGCUGCCAGUGAAGAAAUGAACAAAGAAAAUCUGGGCCAGGCAGGCAUCAAAAGAAAUAGUCUUGCGCUCAACCAGAAAGCCGGUAAUCAUUUUAAGGGUA, 2.61. Consider GUUAACGGUCAUAGGCCAUGGAAACUAGGAGCACCAUUUCGCUGCCAGUGAAGAAAUGAACAAAGAAAAUCUGGGCCAGGCAGGCAUCAAAAGAAAUAGUCUUGCGCUCAACCAGAAAGCCAGUAAUCAUUUUAAGGGUA, for which the self-cleavage was 0.26. As for GUUAACGGUCAUAGGCCAUGGAAACUAGGAGCACCAUUUCGCUGCCAGUGAAGAAAUGAACAAAGAAAAUCUGGGCCAGGCAGGCAUCAAAAGAAAUAGUCUUGCGCUCAACCAGAAAGCCUGUAUUCAUUUUAAGGGUA, the self-cleavage was determined as 0.57.

On to GUUAACGGUCAUAGGCCAUGGAAACUAGGAGCACCAUUUCGCUGCCAGUGAAGAAAUGAACAAAGAAAAUCUGGGCCAGGCAGGCAUCAAAAGAAAUAGUCUUGCGCUCAACCAGAAGGUCUGUAAUCAUUUCAAGGGUA, for which the self-cleavage was 1.23.
